From article PMC9897667 (2023) come the findings set out here.

What is called Kd is the equilibrium constant for the complex coming apart. High values mean a looser complex, low ones a tighter complex.

Test [1] addresses extracellular domain of human RAGE (residues 1 to 344) (human, UniProt Q15109 23-344). Kind of test: SPR. For orientation: Surface plasmon resonance follows binding to a sensor surface in real time, without labels.
In test [2] the target is human TLR4 (ECD-His Tag, residues 1 to 631) (human, UniProt O00206 24-631). As to the kind of experiment: SPR.
human TLR4 (ECD-His Tag, residues 1 to 631), sequence (O00206 24-631): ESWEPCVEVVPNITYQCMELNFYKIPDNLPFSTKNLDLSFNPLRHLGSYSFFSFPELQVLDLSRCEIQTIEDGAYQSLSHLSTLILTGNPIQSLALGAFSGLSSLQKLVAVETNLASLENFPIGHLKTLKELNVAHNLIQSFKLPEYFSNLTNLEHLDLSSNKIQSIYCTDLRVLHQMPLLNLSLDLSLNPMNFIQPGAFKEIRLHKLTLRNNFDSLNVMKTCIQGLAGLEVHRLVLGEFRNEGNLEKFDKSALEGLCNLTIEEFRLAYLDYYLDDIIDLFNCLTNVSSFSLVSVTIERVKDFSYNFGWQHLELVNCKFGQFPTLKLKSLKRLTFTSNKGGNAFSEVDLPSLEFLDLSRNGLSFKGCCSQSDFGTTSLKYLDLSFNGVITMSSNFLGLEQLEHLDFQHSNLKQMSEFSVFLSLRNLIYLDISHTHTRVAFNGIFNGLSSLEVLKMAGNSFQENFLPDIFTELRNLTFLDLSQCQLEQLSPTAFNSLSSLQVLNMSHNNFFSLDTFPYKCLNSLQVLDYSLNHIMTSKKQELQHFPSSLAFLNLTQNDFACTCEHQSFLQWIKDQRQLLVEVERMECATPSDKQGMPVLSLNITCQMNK

extracellular domain of human RAGE (residues 1 to 344), sequence (Q15109 23-344): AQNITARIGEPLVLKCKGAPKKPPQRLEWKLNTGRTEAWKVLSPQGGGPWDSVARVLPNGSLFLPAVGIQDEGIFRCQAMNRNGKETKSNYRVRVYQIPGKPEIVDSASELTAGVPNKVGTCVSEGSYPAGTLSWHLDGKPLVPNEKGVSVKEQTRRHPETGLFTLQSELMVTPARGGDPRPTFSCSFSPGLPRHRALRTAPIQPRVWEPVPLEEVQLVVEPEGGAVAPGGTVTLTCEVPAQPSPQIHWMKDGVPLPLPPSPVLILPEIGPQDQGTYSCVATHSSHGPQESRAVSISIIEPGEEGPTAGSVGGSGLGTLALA

B1: recombinant human procathepsin L (pCTS-L) (natural protein)
chain: TLTFDHSLEAQWTKWKAMHNRLYGMNEEGWRRAVWEKNMKMIELHNQEYREGKHSFTMAMNAFGDMTSEEFRQVMNGFQNRKPRKGKVFQEPLFYEAPRSVDWREKGYVTPVKNQGQCGSCWAFSATGALEGQMFRKTGRLISLSEQNLVDCSGPQGNEGCNGGLMDYAFQYVQDNGGLDSEESYPYEATEESCKYNPKYSVANDTGFVDIPKQEKALMKAVATVGPISVAIDAGHESFLFYKEGIYFEPDCSSEDMDHGVLVVGYGFESTESDNNKYWLVKNSWGEEWGMGGYVKMAKDRRNHCGIASAASYPTV
On to B1, for which the figures for the Kd in test [1] and in test [2] were 2.7 nM and 18 nM, respectively.
